How the values were obtained:
[1] = target: Cfl1 (Cif-like epoxide hydrolase 1) from Burkholderia cenocepacia strain J2315 / K56-2 (Burkholderia cenocepacia strain K56-2 (identical to strain J2315)); assay: crystal structure; hanging drop vapor diffusion; X-ray, 2.2 Å; molecular replacement with a Cif monomer
[2] = target: Cfl2 (Cif-like epoxide hydrolase 2) from Burkholderia cenocepacia strain HI2424 (Burkholderia cenocepacia strain HI2424); assay: as above

| Substance | stoichiometry N [1] | stoichiometry N [2] |
| --- | --- | --- |
| Cfl1 (Cif-like epoxide hydrolase 1) from Burkholderia cenocepacia strain J2315 / K56-2 (enzyme) | 8 |  |
| Cfl2 (Cif-like epoxide hydrolase 2) from Burkholderia cenocepacia strain HI2424 (enzyme) |  | 10 |

Reference: publication PMC8244358
